# IntAct's records for PubMed 31515488
# B1: 1-aminocyclopropane-1-carboxylate synthase-like protein 1 (Homo sapiens), Q96QU6 (parent)
# chain: MFTLPQKDFRAPTTCLGPTCMQDLGSSHGEDLEGECSRKLDQKLPELRGVGDPAMISSDTSYLSSRGRMIKWFWDSAEEGYRTYHMDEYDEDKNPSGIINLGTSENKLCFDLLSWRLSQRDMQRVEPSLLQYADWRGHLFLREEVAKFLSFYCKSPVPLRPENVVVLNGGASLFSALATVLCEAGEAFLIPTPYYGAITQHVCLYGNIRLAYVYLDSEVTGLDTRPFQLTVEKLEMALREAHSEGVKVKGLILISPQNPLGDVYSPEELQEYLVFAKRHRLHVIVDEVYMLSVFEKSVGYRSVLSLERLPDPQRTHVMWATSKDFGMSGLRFGTLYTENQDVATAVASLCRYHGLSGLVQYQMAQLLRDRDWINQVYLPENHARLKAAHTYVSEELRALGIPFLSRGAGFFIWVDLRKYLPKGTFEEEMLLWRRFLDNKVLLSFGKAFECKEPGWFRFVFSDQVHRLCLGMQRVQQVLAGKSQVAEDPRPSQSQEPSDQRR
# partner: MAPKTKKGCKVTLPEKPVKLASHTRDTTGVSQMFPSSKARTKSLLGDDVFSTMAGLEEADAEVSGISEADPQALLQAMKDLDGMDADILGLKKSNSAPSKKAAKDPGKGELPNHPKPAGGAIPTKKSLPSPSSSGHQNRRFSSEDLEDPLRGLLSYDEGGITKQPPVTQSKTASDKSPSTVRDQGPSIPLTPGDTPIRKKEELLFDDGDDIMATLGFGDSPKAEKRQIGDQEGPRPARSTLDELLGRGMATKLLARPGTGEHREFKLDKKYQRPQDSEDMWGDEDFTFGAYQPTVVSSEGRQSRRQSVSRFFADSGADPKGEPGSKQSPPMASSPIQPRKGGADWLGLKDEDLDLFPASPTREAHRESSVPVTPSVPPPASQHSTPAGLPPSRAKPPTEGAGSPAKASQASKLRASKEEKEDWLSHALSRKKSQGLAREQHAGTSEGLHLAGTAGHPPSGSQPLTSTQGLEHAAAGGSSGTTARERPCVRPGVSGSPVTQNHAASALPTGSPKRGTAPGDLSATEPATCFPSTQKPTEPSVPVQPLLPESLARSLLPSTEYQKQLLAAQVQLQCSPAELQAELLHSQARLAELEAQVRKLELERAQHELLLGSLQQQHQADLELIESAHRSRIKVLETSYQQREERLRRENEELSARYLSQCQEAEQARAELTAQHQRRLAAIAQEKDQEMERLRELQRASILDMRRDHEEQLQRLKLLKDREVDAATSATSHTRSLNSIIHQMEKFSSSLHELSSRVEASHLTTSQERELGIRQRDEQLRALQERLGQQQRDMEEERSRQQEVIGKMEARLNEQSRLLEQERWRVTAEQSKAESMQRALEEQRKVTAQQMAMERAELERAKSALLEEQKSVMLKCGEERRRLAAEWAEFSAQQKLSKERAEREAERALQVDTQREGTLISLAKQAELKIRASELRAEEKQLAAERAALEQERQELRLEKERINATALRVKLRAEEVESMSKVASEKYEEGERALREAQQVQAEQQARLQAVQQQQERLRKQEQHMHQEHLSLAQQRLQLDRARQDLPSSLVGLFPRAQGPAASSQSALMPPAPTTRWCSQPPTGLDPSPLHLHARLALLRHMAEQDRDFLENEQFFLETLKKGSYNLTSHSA
# B2: Protein DBF4 homolog B (Homo sapiens), Q8NFT6 (parent)
# chain: MSEPGKGDDCLELESSMAESRLRAPDLGVSRCLGKCQKNSPGARKHPFSGKSFYLDLPAGKNLQFLTGAIQQLGGVIEGFLSKEVSYIVSSRREVKAESSGKSHRGCPSPSPSEVRVETSAMVDPKGSHPRPSRKPVDSVPLSRGKELLQKAIRNQGSISGGGSGGSSSLLTNARSWGVRILHVDEMMMHVQQLSLASLCVKKQQPKKPEGTCPAAESRTRKVARLKAPFLKIEDESRKFRPFHHQFKSFPEISFLGPKDASPFEAPTTLGSMHHTRESKDGEPSPRSAAHTMPRRKKGYCECCQEAFEELHVHLQSAQHRSFALEAHLYAEVDRIIAQLSHSFADIPFQAGLPRWSGSPASDCDPLCPETLHPHQPSHPRAASPRIRKEDSCQASVTQGRAAGQQRWTESLDGVMGPPASHTCVSATTLLPALPKGSREQGCLCPCPASFTQSHLVTSLALLPGEWSPAEDMPLHPSQENSFAPADIPVKGPLLFPEARPWLMSARCWVRPFPFVTWGCLIPHDTTPLHEEVSPCPCLRLGYLYLLLTQSLWCRVRVPSLSTAGPIPRTSHPCTLAFPSYLNDHDLGHLCQAKPQGWNTPQPFLHCGFLAVDSG
# partner: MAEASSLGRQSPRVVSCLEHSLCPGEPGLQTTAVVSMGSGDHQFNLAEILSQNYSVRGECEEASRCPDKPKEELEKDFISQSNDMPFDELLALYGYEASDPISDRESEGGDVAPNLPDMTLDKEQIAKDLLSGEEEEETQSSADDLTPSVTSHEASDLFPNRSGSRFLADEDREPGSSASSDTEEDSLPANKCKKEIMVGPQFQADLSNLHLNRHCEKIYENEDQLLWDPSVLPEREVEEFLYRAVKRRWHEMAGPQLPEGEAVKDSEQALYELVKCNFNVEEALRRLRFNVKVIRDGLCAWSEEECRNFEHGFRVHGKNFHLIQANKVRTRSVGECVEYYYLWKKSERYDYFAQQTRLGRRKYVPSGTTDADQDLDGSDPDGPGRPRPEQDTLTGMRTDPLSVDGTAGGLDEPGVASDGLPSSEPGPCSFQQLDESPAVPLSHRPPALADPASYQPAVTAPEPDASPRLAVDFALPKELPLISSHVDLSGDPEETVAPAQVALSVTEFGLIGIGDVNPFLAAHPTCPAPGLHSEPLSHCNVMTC
# B3: Keratin, type I cytoskeletal 20 (Homo sapiens), P35900 (parent)
# chain: MDFSRRSFHRSLSSSLQAPVVSTVGMQRLGTTPSVYGGAGGRGIRISNSRHTVNYGSDLTGGGDLFVGNEKMAMQNLNDRLASYLEKVRTLEQSNSKLEVQIKQWYETNAPRAGRDYSAYYRQIEELRSQIKDAQLQNARCVLQIDNAKLAAEDFRLKYETERGIRLTVEADLQGLNKVFDDLTLHKTDLEIQIEELNKDLALLKKEHQEEVDGLHKHLGNTVNVEVDAAPGLNLGVIMNEMRQKYEVMAQKNLQEAKEQFERQTAVLQQQVTVNTEELKGTEVQLTELRRTSQSLEIELQSHLSMKESLEHTLEETKARYSSQLANLQSLLSSLEAQLMQIRSNMERQNNEYHILLDIKTRLEQEIATYRRLLEGEDVKTTEYQLSTLEERDIKKTRKIKTVVQEVVDGKVVSSEVKEVEENI
# partner: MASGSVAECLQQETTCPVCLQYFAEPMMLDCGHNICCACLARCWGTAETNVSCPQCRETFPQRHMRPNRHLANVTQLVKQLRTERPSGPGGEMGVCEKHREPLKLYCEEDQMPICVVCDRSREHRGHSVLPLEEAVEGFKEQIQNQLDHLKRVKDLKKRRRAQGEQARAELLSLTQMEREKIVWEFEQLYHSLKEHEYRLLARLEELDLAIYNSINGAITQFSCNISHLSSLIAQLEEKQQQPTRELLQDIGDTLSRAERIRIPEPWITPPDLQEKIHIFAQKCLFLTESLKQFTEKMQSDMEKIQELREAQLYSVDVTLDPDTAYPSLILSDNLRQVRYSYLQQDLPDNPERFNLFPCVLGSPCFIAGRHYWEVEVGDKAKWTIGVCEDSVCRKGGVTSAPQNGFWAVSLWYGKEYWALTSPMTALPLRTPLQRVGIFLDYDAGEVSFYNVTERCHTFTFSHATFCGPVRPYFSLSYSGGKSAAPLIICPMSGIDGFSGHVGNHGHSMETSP
# B4: Keratin, type II cytoskeletal 79 (Homo sapiens), Q5XKE5 (parent)
# chain: MRSSVSRQTYSTKGGFSSNSASGGSGSQARTSFSSVTVSRSSGSGGGAHCGPGTGGFGSRSLYNLGGHKSISVSVAGGALLGRALGGFGFGSRAFMGQGAGRQTFGPACPPGGIQEVTVNQSLLTPLHVEIDPEIQRVRTQEREQIKTLNNKFASFIDKVRFLEQQNKVLETKWALLQEQGQNLGVTRNNLEPLFEAYLGSMRSTLDRLQSERGRLDSELRNVQDLVEDFKNKYEDEINKHTAAENEFVVLKKDVDAAYMGRMDLHGKVGTLTQEIDFLQQLYEMELSQVQTHVSNTNVVLSMDNNRNLDLDSIIAEVKAQYELIAQRSRAEAEAWYQTKYEELQVTAGKHGDNLRDTKNEIAELTRTIQRLQGEADAAKKQCQQLQTAIAEAEQRGELALKDAQKKLGDLDVALHQAKEDLTRLLRDYQELMNVKLALDVEIATYRKLLESEESRMSGECPSAVSISVTGNSTTVCGGGAASFGGGISLGGSGGATKGGFSTNVGYSTVKGGPVSAGTSILRKTTTVKTSSQRY
# Variants of: B1
# Conditions: with fbf1_human FBF1, Q8TES7
row,Variant,effect of a mutation on the interaction
1,D59N,with no effect

# Variants of: B1
# Conditions: with fbf1_human FBF1, Q8TES7
# Remark: another data set of the same source
row,Variant,effect of a mutation on the interaction
1,S393L,with no effect

# Variants of: B2
# Conditions: with mier2_human MIER2, Q8N344
row,Variant,effect of a mutation on the interaction
1,L199S,with no effect

# Variants of: B3
# Conditions: with tri27_human TRIM27, P14373
row,Variant,effect of a mutation on the interaction
1,S309Y,with no effect
2,S129N,with no effect

# Variants of: B4
# Conditions: with KRT15, P19012
# Chain of KRT15, P19012 (P19012 whole entry): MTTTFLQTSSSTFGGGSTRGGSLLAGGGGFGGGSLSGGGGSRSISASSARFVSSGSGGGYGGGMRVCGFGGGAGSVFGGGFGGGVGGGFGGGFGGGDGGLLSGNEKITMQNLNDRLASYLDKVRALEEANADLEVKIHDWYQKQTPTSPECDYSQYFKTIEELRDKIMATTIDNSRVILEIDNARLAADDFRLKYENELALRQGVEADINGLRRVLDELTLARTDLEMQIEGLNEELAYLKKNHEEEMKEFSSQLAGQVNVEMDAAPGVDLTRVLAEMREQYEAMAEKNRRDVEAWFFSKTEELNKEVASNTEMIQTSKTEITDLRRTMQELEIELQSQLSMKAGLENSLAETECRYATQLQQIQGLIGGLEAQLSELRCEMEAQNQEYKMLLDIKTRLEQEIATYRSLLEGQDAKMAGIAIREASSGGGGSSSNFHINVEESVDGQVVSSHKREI
row,Variant,effect of a mutation on the interaction
1,R213W,with no effect
2,R30C,with no effect
3,G86E,with no effect
4,H266R,with no effect
5,D217Y,with no effect

# Variants of: B4
# Conditions: with kt33b_human KRT33B
row,Variant,effect of a mutation on the interaction
1,H266R,with no effect
2,D217Y,with no effect
